Experimental data taken from patent US20200031892A1, “COMPOSITION COMPRISING NEUREGULIN FOR ORGAN PERFUSION, PRESERVATION OR REPERFUSION, AND USE THEREOF” (Zensun (Shanghai) Science & Technology, Co., Ltd., priority 2007, published 2020).

Legend:
[1] = tested on: patients with stable chronic heart failure; assay: Haemodynamics in patients with stable chronic heart failure after continuous intravenous infusion of neuregulin; format: in vivo, human; details: 0.2 μg/kg/hour i.v. infusion for 6 hours
Description: 6 patients with stable chronic heart failure were treated with continuous intravenous infusion of neuregulin at 0.2 μg/kg/hour (drug weight/body weight/hour) for 6 hours. A baseline right heart catheterisation was performed and Swan Ganz catheter left in situ to monitor haemodynamics for 24 hours.

[2] = tested on: cardiomyocytes from myocardial infarcted rats; assay: Relaxation of cardiomyocytes isolated from myocardial infarcted rats treated with neuregulin by osmotic pump; format: in vivo, rat; details: myocytes from MI rats treated with neuregulin compared with MI rats treated with vehicle
Description: Wistar male rats (Shanghai Animal Center of Chinese Academy of Science), which weighed 200±20 g, were anesthetized by intraperitoneally injecting 100 mg/kg (drug/body weight) of ketamine. The neck and chest were depilated and sanitized. An incision Was made in the middle front neck to expose the tracheae. An 18G catheter overneedle was inserted into the tracheae between the 3rd and 5th cartilage of tracheae. After the needle was drawn out, a plastic cannula was pushed into the trachea 1-2 cm and fixed to connect the Rodent Ventilator (SAR-830/P ventilator—Inspiratory flow rate, 1 ml/100 g/breath; Respiratory rate, 60 breaths/min). Another incision was made on the left front chest. The skin was blunt dissected to expose the fourth and fifth rib, then the fourth rib was cut by elbowed mosquito forceps. The ventilator (as described above) was linked to the cannula and turned on, and the heart was exposed to check the status of lung and heart. The pericardium was rived off to identify the left atria and the pulmonary arterious cone after the heart was exteriorized through the incision. The left ventricle anterior descending coronary artery between them was ligated tight with 6/0 medical suture before the heart was replaced into the thorax. The thoracic wall was stitched. The ventilator was blocked to full fill the lung. […]

B1: NRG: NRG having the sequence of SEQ ID NO:1, which corresponds to amino acids 177-237 of human NRG-1 (protein, listed as Homo sapiens)
chain: SHLVKCAEKEKTFCVNGGECFMVKDLSNPSRYLCKCPNEFTGDRCQNYVMASFYKAEELYQ
increase of average cardiac output ([1]; 2 hours after infusion vs baseline 3.7±1.0 L/min): 29.7% | systemic vascular resistance (SVR) ([1]; after infusion (baseline 1679.3±336.3)): 1199.5±127.6 dynes-sec-cm^−5 | average cardiac output ([1]; at 2 hours after infusion (baseline 3.7±1.0)): 4.8 ± 0.8 L/min | fall of systemic vascular resistance (SVR) ([1]; vs baseline 1679.3±336.3): 29% | relaxation of myocytes (time to relax to half of the maximum length, FIG. 1) [2]: relax much faster
